Consider 15 molecules from patent US20230272055A1 (Incyte, published 2023).

Assay [1] concerns the target T1, Human Type 1 mutCALR (human).
T1 chain: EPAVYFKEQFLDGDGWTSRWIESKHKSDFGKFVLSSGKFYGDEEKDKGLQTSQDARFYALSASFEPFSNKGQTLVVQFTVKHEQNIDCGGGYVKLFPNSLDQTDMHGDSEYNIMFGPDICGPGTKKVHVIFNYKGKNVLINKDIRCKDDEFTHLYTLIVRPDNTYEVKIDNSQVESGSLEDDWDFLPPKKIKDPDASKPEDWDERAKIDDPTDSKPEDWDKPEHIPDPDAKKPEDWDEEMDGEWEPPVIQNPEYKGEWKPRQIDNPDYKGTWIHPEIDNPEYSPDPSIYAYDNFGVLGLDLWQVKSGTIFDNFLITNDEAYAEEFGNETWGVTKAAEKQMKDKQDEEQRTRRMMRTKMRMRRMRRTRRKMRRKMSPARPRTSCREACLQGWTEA
As to the kind of experiment: cell-based or functional assay.

The target in assay [2] is T1, Human Type 1 mutCALR. As to the kind of experiment: cell-based or functional assay.
The target of assay [3] is T2, Recombinant MBP-mutCALR Type 2 fusion protein (human).
T2 construct: custom made at Cepter
As to the kind of experiment: SPR, IgG captured, 1:1 fit, Exp. 3. Here is the method: Experiment 2: Recombinant MBP-mutCALR Type 1 fusion protein was custom made at Cepter (cepterbiopartners.com). Data for the interaction of antibodies with recombinant mutCALR protein were collected at 25° C. on a Biacore 8K instrument (Cytiva, Marlborough, Mass.), and all reagents were obtained from Cytiva unless otherwise specified. The experiments were conducted using Tris-buffered saline (pH 7.2), 0.005% Surfactant P20, 1 mM CaCl₂) as running buffer. To prepare the capture surfaces, anti-human IgG (Fc) antibodies (Product #29234600) was amine-coupled onto a CM4 chip (Product #BR100534) under standard conditions using an Amine Coupling Kit (Product #BR100050). […] The kinetics parameters were obtained by applying 1:1 binding model to fit the data from multiple-cycle injection experiments using Biacore Insight Evaluation software.
Recombinant MBP-mutCALR Type 2 fusion protein was custom made at Cepter (cepterbiopartners.com). Data for the interaction of antibodies with recombinant MBP-mutCALR Type 2 fusion protein were collected as described in Experiment 2. The chip used was a Biacore Series S Sensor Chip CM4 with anti-huFc immobilized onto the chip surface.

Assay [4] concerns the target T3, Recombinant MBP-mutCALR Type 1 fusion protein (human).
T3 construct: custom made at Cepter; also called recombinant mutCALR protein
As to the kind of experiment: SPR, IgG captured, 1:1 fit, Exp. 2. The essentials: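 Antibodies captured via amine-coupled anti-human IgG (Fc) on a CM4 chip; recombinant MBP-mutCALR Type 1 fusion protein as analyte. Run at 25 °C in Tris-buffered saline pH 7.2, 0.005% P20, 1 mM CaCl₂. Multiple-cycle kinetics fitted to a 1:1 binding model.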

Assay [5] addresses T1, Human Type 1 mutCALR. Description: cell-based or functional assay.
The target in assay [6] is MBP protein (UniProt P0AEX9 27-392 = MBP). As to the kind of experiment: SPR (Biacore 8K), antibody captured on anti-human IgG (Fc), MBP injected.

Substitutions are numbered along the chain they refer to. Names may count otherwise.

B1: anti-mutCALR antibody clone 52 (antibody, human IgG1, kappa, V domains shown)
VH: EVQLVQSGAEVKKPGASVKVSCKVSGYTLTELSMHWVRQAPGKGLEWMGLVDPEDGETIYAEKFQGRVTITADTSTDTAYMELSSPRSEDTAVYYCATTIGDDYFDYWGQGTLVTVSS
VL: not shown
As for B1, the “Log IC50 of inhibition of cell proliferation, antibody + ruxolitinib (Ba/F3-TPOR/mutCALR type 1 cells)” value in assay [1] is -0.709 Log IC50 (µg/mL). Moreover, the “IC50 of inhibition of cell proliferation (Ba/F3 cells with MPL and mutCALR Type 1)” value in assay [2] amounted to 0.0337 mg/L.

B2: anti-mutCALR antibody clone 65 (antibody, human IgG1, lambda, N297A, V domains shown)
VH: EVQLVQSGAEVKKPGASVKVSCKVSGYTLTELSMQWVRQAPGKGLEWMGGFDPDDGETMYAEKFQGRLTVTEDTSTDTVYMELRSLTSEDTALYFCATSPGYDFFDYWGQGTLVTVSS
VL: SYVLTQPPSVSVAPGKTARITCTGTSSDVGGYNYVSWYQQKPGQAPVLVVYEVSNRPSGIPERFSGSNSGNTATLTISRVEAGDEADYYCQVWDSSNDLLIFGGGTKLTVLG
notes: human IgG1 N297A variant of clone 6
Consider B2, for which, in assay [3], the equilibrium dissociation constant (Kd) was 6.35 nM, the koff was determined as 0.00424 s⁻¹ and the kon came to 668000 M⁻¹ s⁻¹. Further, in assay [4], the Kd was 0.502 nM, the off-rate (koff) stood at 0.00231 s⁻¹ and the kon was 4.6e+06 M⁻¹ s⁻¹.

B3: anti-mutCALR antibody clone 74 (antibody, human IgG1, lambda, N297A, V domains shown)
VH: B2 VH with G56A, R84S, T87R, L93V
VL: B2 VL
notes: as for B2
For B3, in assay [3], the Kd worked out at 6.78 nM, the koff was 0.00579 s⁻¹ and the kon was 854000 M⁻¹ s⁻¹. Moreover, in assay [4], the Kd worked out at 1.19 nM, the dissociation rate constant (koff) stood at 0.00153 s⁻¹ and the kon was determined as 1.29e+06 M⁻¹ s⁻¹.

B4: anti-mutCALR antibody clone 32 (antibody, human IgG1, lambda, V domains shown)
VH: QVQLVQSGAEVKKPGATVKISCKVSGYSFTDYFIHWVQQAPGKGLAWVGLVDPEDGETIYAEKFQGRVTITADTSTDTAYMELSSLRSEDTAVYYCATPGGILTDPDAFDIWGQGTMVTVSS
VL: QSALTQPASVSGSPGQSITISCTGTSSDVGGYNYVSWYQQHPGKAPKLMIYEVSNRPSGVSNRFSGSKSGNTASLTISGLQAEDEADYYCSSYTSSSTPYVFGTGTKVTVLG
Consider B4, for which, in assay [1], the “Log IC50 of inhibition of cell proliferation, antibody + ruxolitinib (Ba/F3-TPOR/mutCALR type 1 cells); extrapolated from fitted curve” value was -0.586 Log IC50 (µg/mL) and the “Log IC50 of inhibition of cell proliferation, antibody alone (Ba/F3-TPOR/mutCALR type 1 cells); extrapolated from fitted curve” value is 0.18 Log IC50 (µg/mL). Moreover, the “IC50 of inhibition of cell proliferation (Ba/F3 cells with MPL and mutCALR Type 1)” value in assay [2] came to 0.225 mg/L.

B5: anti-mutCALR antibody clone 33 (antibody, human IgG1, lambda, V domains shown)
VH: B4 VH
VL: QSALTQPRSVSGSPGQSVTISCAGTGSDVGGYNHVSWYQHHPGKAPKLMIYDVNKRPSGVPDRFSGSKSGNTASLTISGLQAEDEADYYCSSYIPSSTRWVFGGGTKLTVLG
Consider B5, for which the “IC50 of inhibition of cell proliferation (Ba/F3 cells with MPL and mutCALR Type 1)” value in assay [2] was determined as 16.9 mg/L.

B6: anti-mutCALR antibody clone 36 (antibody, human IgG1, lambda, V domains shown)
VH: B4 VH
VL: B5 VL with H34Y, I94T, P95S, R99F, W100Y, G104T, L108V
Turning to B6, the “Log IC50 of inhibition of cell proliferation, antibody + ruxolitinib (Ba/F3-TPOR/mutCALR type 1 cells); extrapolated from fitted curve” value in assay [1] was -3.88 Log IC50 (µg/mL). The “IC50 of inhibition of cell proliferation (Ba/F3 cells with MPL and mutCALR Type 1)” value in assay [2] was 0.0905 mg/L. For the same molecule, in assay [5], the “IC50 of inhibition of cell proliferation (BaF3 cells expressing MPL/mutCALR Type 1)” value came to 0.98 mg/L.

B7: anti-mutCALR antibody clone 35 (antibody, human IgG1, lambda, V domains shown)
VH: B4 VH with K63R
VL: B4 VL
In the case of B7, in assay [2], the “IC50 of inhibition of cell proliferation (Ba/F3 cells with MPL and mutCALR Type 1)” value came out at 0.088 mg/L. Further, the “IC50 of inhibition of cell proliferation (BaF3 cells expressing MPL/mutCALR Type 1)” value in assay [5] stood at 2.18 mg/L.

B8: anti-mutCALR antibody clone 31 (antibody, human IgG1, lambda, V domains shown)
VH: B4 VH
VL: B5 VL with R8A, A23T, G26S, H34Y
B8: the “IC50 of inhibition of cell proliferation (Ba/F3 cells with MPL and mutCALR Type 1)” value in assay [2] came to 13 mg/L.

B9: anti-mutCALR antibody clone 37 (antibody, human IgG1, lambda, V domains shown)
VH: B4 VH
VL: B4 VL with E52D, P99F
For B9, the “IC50 of inhibition of cell proliferation (BaF3 cells expressing MPL/mutCALR Type 1)” value in assay [5] came to 0.201 mg/L.

B10: anti-mutCALR antibody clone 34 (antibody, human IgG1, lambda, V domains shown)
VH: B4 VH
VL: QSALTQPASVSGSPGQSITISCTGTSSDVGGYNYVSWYQQHPGKAPKLMIYEVSNRPSGVSNRFSGSKSGNTASLTISGLQAEDEADYYCSSYTSSSTYVFGTGTKVTVLG
As to B10, the “IC50 of inhibition of cell proliferation (Ba/F3 cells with MPL and mutCALR Type 1)” value in assay [2] came out at 0.0593 mg/L.

B11: anti-mutCALR antibody clone 162 (antibody, human IgG1, lambda, N297A)
heavy: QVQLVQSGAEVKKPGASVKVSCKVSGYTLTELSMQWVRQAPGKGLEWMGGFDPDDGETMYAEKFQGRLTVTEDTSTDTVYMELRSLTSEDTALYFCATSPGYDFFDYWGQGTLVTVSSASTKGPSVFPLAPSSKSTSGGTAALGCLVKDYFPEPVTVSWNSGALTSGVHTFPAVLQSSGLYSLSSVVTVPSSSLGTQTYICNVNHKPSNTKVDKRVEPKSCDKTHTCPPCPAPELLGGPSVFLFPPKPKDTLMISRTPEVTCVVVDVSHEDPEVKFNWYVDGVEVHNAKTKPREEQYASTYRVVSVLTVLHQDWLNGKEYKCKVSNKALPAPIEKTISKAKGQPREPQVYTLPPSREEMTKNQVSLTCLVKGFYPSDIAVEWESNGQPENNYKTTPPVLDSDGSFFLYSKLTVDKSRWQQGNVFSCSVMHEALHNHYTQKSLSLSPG
light: SYVLTQPPSVSVAPGKTARITCGGDNIGSKSVHWYQQKPGQAPVLVVYDDSDRPSGIPERFSGSNSGNTATLTISRVEAGDEADYYCQVWDSSNDLLIFGGGTKLTVLGQPKAAPSVTLFPPSSEELQANKATLVCLISDFYPGAVTVAWKADSSPVKAGVETTTPSKQSNNKYAASSYLSLTPEQWKSHRSYSCQVTHEGSTVEKTVAPTECS
notes: human IgG1 N297A variant of clone 15
Consider B11, for which, in assay [3], the equilibrium dissociation constant (Kd) amounted to 11.2 nM, the koff came to 0.00682 s⁻¹ and the kon stood at 607000 M⁻¹ s⁻¹.

B12: anti-mutCALR antibody clone 40 (antibody, human IgG1, lambda, V domains shown)
VH: EVQLVQSGAEVKKPGASVKVSCKVSGYTLTESSMHWVRQAPGKGLEWMGLVDPEDGETIYAQKFQGRVTMTEDTSTDTAYMELSSLRSEDTAVYYCAREEWSGDGDDAFDIWGQGTMVTVSS
VL: QSVLTQPPSVSAAPGQKVTISCSGSSSNIGSYSVSWYQQLPGTAPKLLIYDNNKRPSGIPDRFSGSNSGTSATLGITGLQTGDEADYYCGTWDSSLSAWVFGGGTKLTVLG
Turning to B12, the “Log IC50 of inhibition of cell proliferation, antibody + ruxolitinib (Ba/F3-TPOR/mutCALR type 1 cells); extrapolated from fitted curve” value in assay [1] is -1.59 Log IC50 (µg/mL). In assay [2], the “IC50 of inhibition of cell proliferation (Ba/F3 cells with MPL and mutCALR Type 1)” value stood at 0.0384 mg/L.

B13: anti-mutCALR antibody clone 41 (antibody, human IgG1, lambda, V domains shown)
VH: B12 VH with S32L
VL: B12 VL
B13: the “IC50 of inhibition of cell proliferation (Ba/F3 cells with MPL and mutCALR Type 1)” value in assay [2] was 0.342 mg/L. In assay [5], the “IC50 of inhibition of cell proliferation (BaF3 cells expressing MPL/mutCALR Type 1)” value was determined as 3.98 mg/L.

B14: anti-mutCALR antibody clone 53 (antibody, human IgG1, lambda, V domains shown)
VH: QVQLVQSGAEVKKPGASVKVSCKVSGYTLTELSMHWVRQAPGKGLEWMGGFDPEDGETIYAQKFQGRVTMTEDTSTDTAYMELSSLRSEDTAVYYCATDIQGLAEFDYWGQGTLVTVSS
VL: QSALTQPRSVSGSPGQSVTISCTGTNTDVGAYIDVSWYQQHPGKAPKLIIYDVSKWPSGVPDRFSGSKSGNTASLTISGLQAEDEADYYCCSYAGNHSFSFGGGTKVTVLG
As to B14, in assay [1], the “Log IC50 of inhibition of cell proliferation, antibody + ruxolitinib (Ba/F3-TPOR/mutCALR type 1 cells)” value was -0.424 Log IC50 (µg/mL) and the “Log IC50 of inhibition of cell proliferation, antibody alone (Ba/F3-TPOR/mutCALR type 1 cells)” value is -0.173 Log IC50 (µg/mL). Besides, the “IC50 of inhibition of cell proliferation (Ba/F3 cells with MPL and mutCALR Type 1)” value in assay [2] amounted to 0.399 mg/L. Also, the “IC50 of inhibition of cell proliferation (BaF3 cells expressing MPL/mutCALR Type 1)” value in assay [5] is 9.5 mg/L.

B15: anti-mutCALR antibody clone 53 (antibody, human IgG1, lambda, V domains shown)
VH: B14 VH
VL: B14 VL
notes: human IgG1; group 13
B15: the binding result in assay [6] is “no binding (tested: 250 nM)”.
